Molecular target: hSSB1 (NABP2/OBFC2B) (Homo sapiens, UniProt Q9BQ15 1-211)
Assay: EMSA; 0-2 uM hSSB1; 90 fmol DNA in 10 ul; 8-oxoG opposite C (pairing base inferred); EMSA: 50 mM Tris-HCl pH 7.5, 100 mM KCl, 100 ug/ml BSA, 15 min at 37 C; 8% polyacrylamide gel
Conditions: protein: recombinant; tags: N-terminal His6; label: 5' FAM; blunt

Chain of hSSB1 (NABP2/OBFC2B) (Q9BQ15 whole entry): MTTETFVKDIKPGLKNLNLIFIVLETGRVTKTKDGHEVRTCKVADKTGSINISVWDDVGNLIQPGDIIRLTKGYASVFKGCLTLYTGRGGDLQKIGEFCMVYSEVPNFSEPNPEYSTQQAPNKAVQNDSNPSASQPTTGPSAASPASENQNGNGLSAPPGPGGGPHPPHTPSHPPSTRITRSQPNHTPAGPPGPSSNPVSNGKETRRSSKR

B1: 8-oxoG:C dsDNA (dsDNA)
DNA 1: CTCTCCCTTCGCTCCTTTCCTCT
DNA 2: AGAGGAAAGGAGCGAAGGGAGAG
modifications: 8-oxoguanine at position 11 of strand 1 (written G)
B1: binds.

— article PMC4605301, “hSSB1 (NABP2/ OBFC2B) is required for the repair of 8-oxo-guanine by the hOGG1-mediated base excision repair pathway”
